Columns and labels:
SHP2-C SH2 = assay: SH2 binding enrichment of the phosphorylated peptide, bacterial display (enrichment ratio); higher = better substrate or ligand; peptides without Tyr show the background
Grb2 SH2 = Grb2 SH2 (UniProt P62993); assay: as above
c-Src SH2 = assay: as above
FGFR3 = FGFR3 (UniProt P22607); assay: phosphorylation enrichment, bacterial display (enrichment ratio); higher = better substrate or ligand; peptides without Tyr show the background
Jak2 = Jak2 (UniProt O60674); assay: as above
Jak2, sequence (O60674 whole entry, looked up): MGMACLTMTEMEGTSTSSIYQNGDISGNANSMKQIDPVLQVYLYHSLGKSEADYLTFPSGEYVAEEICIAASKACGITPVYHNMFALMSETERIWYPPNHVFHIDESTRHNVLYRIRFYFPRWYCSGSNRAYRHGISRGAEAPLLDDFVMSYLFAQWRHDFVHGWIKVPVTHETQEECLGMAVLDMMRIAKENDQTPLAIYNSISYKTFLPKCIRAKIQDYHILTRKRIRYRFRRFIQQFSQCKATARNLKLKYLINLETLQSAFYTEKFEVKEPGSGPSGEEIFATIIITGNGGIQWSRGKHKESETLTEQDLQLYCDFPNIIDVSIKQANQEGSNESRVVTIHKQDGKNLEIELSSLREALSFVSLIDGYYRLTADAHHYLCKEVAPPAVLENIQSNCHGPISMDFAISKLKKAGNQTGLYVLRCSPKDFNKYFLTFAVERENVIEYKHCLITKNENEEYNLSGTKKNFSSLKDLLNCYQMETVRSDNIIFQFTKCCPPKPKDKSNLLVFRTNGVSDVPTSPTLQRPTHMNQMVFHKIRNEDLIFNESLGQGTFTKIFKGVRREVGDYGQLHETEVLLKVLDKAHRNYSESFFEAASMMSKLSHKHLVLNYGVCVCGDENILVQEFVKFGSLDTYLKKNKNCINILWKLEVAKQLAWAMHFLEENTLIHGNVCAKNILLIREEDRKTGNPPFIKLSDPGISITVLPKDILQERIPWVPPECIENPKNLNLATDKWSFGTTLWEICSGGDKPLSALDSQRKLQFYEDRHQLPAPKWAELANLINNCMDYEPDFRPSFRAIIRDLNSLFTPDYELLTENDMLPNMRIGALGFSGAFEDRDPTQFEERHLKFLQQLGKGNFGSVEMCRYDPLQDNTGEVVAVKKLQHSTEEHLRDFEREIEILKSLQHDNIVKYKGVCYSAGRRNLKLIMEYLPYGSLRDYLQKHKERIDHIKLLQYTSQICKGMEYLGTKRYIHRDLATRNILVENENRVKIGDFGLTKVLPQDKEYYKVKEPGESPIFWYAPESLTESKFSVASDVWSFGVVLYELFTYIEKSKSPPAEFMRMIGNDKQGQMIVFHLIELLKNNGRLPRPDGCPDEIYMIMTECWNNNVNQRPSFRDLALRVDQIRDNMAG

AncSZ = assay: as above
Fer (mouse) = assay: as above
EPHB2 = EPHB2 (UniProt P29323); assay: as above
Hck = Hck (UniProt P08631); assay: as above
Hck, sequence (P08631 whole entry, looked up): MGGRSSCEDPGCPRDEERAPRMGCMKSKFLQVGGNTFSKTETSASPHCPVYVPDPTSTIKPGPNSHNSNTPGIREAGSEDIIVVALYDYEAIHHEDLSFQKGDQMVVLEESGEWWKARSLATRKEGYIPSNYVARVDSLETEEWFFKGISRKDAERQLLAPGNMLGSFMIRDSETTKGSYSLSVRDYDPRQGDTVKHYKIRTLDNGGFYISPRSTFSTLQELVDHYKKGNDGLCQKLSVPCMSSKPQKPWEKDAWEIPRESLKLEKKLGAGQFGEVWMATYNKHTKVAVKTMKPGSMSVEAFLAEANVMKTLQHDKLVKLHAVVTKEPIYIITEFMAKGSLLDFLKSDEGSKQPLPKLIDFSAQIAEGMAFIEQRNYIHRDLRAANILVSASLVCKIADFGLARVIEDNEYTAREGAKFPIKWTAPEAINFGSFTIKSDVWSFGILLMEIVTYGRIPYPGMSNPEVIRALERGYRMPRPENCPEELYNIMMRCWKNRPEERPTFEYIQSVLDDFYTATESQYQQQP

c-Src = assay: as above
EPHB1 = EPHB1 (UniProt P54762); assay: as above
FGFR1 = FGFR1 (UniProt P11362); assay: as above
FGFR1, sequence (P11362 whole entry, looked up): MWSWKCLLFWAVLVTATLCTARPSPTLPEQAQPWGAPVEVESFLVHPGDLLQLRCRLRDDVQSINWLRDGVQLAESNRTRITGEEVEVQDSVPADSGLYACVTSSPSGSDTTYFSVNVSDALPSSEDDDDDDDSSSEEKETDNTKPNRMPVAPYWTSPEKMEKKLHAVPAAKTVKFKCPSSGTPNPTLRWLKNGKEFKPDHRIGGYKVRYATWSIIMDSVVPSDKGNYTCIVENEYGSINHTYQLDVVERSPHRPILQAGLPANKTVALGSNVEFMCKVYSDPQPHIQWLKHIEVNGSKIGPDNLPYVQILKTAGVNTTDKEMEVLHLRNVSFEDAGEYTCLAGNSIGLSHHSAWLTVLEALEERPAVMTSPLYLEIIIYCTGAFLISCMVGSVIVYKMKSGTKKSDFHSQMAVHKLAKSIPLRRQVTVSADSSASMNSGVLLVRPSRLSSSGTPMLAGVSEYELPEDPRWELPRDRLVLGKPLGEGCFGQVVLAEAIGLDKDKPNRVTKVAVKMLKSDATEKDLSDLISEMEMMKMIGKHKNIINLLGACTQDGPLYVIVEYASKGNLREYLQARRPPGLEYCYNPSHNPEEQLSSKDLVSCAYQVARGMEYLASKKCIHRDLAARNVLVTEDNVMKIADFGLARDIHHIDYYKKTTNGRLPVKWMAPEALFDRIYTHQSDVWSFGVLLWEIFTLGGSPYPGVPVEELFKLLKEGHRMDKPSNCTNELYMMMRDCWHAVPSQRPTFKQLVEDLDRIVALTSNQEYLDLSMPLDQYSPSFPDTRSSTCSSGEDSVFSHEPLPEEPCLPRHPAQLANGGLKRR

Fes = Fes (UniProt P07332); assay: as above
Fes, sequence (P07332 whole entry, looked up): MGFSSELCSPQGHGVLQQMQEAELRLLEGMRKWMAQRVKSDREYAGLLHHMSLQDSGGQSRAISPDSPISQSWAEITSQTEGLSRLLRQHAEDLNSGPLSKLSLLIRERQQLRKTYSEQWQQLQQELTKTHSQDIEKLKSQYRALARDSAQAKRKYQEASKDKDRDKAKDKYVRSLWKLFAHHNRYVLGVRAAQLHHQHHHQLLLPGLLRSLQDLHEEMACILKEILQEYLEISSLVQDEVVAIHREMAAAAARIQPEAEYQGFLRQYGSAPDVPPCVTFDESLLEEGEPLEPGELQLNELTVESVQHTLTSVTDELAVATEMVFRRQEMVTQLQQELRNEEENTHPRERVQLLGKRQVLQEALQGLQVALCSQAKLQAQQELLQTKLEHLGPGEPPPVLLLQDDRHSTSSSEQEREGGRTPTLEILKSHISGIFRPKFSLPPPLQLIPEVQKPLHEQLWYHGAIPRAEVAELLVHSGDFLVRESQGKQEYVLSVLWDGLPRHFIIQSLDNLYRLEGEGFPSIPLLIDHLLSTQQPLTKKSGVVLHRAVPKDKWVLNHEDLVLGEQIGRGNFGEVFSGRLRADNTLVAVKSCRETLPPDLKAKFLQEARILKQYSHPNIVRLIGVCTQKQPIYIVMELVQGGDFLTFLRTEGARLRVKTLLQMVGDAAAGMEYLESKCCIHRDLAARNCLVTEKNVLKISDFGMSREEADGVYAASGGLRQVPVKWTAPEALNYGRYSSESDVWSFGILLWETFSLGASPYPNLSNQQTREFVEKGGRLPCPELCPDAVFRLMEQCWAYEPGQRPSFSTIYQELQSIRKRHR

MERTK = MERTK (UniProt Q12866); assay: as above
MERTK, sequence (Q12866 whole entry, looked up): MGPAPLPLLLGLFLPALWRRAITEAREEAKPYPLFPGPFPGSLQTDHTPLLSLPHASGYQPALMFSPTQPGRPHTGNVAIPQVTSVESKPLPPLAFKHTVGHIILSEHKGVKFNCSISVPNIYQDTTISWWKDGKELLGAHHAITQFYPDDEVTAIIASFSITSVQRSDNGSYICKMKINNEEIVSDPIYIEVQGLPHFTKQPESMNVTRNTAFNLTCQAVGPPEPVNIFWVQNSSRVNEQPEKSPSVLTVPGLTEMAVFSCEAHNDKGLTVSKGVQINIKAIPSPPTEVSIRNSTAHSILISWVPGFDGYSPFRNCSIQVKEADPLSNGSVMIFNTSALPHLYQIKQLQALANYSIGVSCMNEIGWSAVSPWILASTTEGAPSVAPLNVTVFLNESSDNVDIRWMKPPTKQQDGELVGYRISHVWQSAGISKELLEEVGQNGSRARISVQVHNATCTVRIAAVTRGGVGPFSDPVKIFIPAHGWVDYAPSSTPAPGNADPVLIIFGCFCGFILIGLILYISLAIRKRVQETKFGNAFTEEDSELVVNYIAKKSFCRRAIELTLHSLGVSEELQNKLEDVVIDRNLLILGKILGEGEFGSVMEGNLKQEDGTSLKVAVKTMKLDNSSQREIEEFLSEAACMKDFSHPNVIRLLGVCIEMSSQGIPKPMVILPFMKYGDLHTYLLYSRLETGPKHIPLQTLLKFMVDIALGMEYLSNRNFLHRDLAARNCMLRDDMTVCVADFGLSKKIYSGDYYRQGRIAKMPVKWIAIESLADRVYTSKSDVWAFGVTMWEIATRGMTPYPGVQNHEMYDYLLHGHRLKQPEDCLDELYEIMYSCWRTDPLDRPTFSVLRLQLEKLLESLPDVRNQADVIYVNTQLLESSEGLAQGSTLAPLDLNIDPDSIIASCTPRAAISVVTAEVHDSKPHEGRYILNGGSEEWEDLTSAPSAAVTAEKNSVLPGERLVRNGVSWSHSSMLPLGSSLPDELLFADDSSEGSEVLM

c-Abl (mouse) = assay: as above
Fyn = Fyn (UniProt P06241); assay: as above
Fyn, sequence (P06241 whole entry, looked up, the tested form may be a part): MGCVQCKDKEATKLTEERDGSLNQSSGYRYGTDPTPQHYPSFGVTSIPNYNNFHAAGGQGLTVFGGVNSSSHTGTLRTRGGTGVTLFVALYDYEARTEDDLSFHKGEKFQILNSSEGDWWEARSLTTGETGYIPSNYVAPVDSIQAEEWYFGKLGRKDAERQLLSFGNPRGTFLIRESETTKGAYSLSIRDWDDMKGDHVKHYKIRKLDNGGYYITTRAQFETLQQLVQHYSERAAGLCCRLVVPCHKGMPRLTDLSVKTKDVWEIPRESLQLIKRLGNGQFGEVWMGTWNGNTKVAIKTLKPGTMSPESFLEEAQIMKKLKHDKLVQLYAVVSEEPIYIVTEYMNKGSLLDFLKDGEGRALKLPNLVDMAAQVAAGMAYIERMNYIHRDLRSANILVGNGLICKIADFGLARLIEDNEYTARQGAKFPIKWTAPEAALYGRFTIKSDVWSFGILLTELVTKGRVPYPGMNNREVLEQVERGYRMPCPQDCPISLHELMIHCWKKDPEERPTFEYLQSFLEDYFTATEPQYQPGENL
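Wherever SH2 binding enrichment of the phosphorylated peptide, bacterial display is given: peptide library displayed on the E. coli surface as eCPX fusions, selected cells deep-sequenced, score is each peptide's frequency after selection divided by its frequency in the input.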
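Wherever phosphorylation enrichment, bacterial display is given: 11-residue human phosphosite peptides and single-mutation variants displayed on the E. coli surface, counted by deep sequencing, each peptide's frequency after selection divided by its frequency in the unselected input library; frequency after pTyr selection over input frequency; kinase dosed for 20-30% of maximal phosphorylation in three min.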

| SH2 binding enrichment (SHP2-C SH2) | SH2 binding enrichment (Grb2 SH2) | SH2 binding enrichment (c-Src SH2) | Sequence | phosphorylation enrichment (FGFR3) | phosphorylation enrichment (Jak2) | phosphorylation enrichment (AncSZ) | phosphorylation enrichment (Fer (mouse)) | phosphorylation enrichment (EPHB2) | phosphorylation enrichment (Hck) | phosphorylation enrichment (c-Src) | phosphorylation enrichment (EPHB1) | phosphorylation enrichment (FGFR1) | phosphorylation enrichment (Fes) | phosphorylation enrichment (MERTK) | phosphorylation enrichment (c-Abl (mouse)) | phosphorylation enrichment (Fyn) |
| --- | --- | --- | --- | --- | --- | --- | --- | --- | --- | --- | --- | --- | --- | --- | --- | --- |
| 0.64 | 0.872 | 0.596 | GGDQPYSGAGD [TYRO3_Y828_R824G] | 0.698 | 0.775 | 0.673 | 0.436 | 0.481 | 0.474 | 0.432 | 0.501 | 0.485 | 0.791 | 0.408 | 0.562 | 0.453 |
| 0.738 | 0.726 | 0.353 | GIVEDYRPPVF [ACVRL1_Y421_F425V_YF] | 0.51 | 0.625 | 0.767 | 0.422 | 0.46 | 0.39 | 0.414 | 0.372 | 0.414 | 0.777 | 0.445 | 0.63 | 0.455 |
| 0.544 | 1.1 | 0.473 | LYSDHYSPSGR [TMPRSS12_Y23] | 0.958 | 1.41 | 1.27 | 16.8 | 2.91 | 2.01 | 2.15 | 4.19 | 1.14 | 1.03 | 28.8 | 1.54 | 1.01 |
| 0.735 | 0.769 | 0.485 | QWRTKYETDTI [MYH7_Y1375_A1379T] | 0.757 | 1.56 | 0.819 | 0.5 | 0.797 | 0.624 | 0.56 | 0.616 | 0.473 | 1.49 | 0.414 | 0.798 | 0.489 |
| 0.927 | 0.771 | 0.495 | THEVRYVSAGQ [SLCO4A1_Y77] | 0.45 | 0.632 | 0.733 | 0.47 | 0.368 | 0.374 | 0.366 | 0.393 | 0.416 | 0.773 | 0.368 | 0.485 | 0.398 |
| 0.605 | 0.756 | 0.384 | FVPAAYVKKLD [SPTAN1_Y1020] | 0.767 | 0.731 | 0.791 | 0.348 | 0.472 | 0.445 | 0.49 | 0.43 | 0.505 | 0.89 | 0.356 | 0.651 | 0.43 |
| 0.729 | 0.769 | 0.447 | QDIMAYRGREV [BCL6_Y157] | 0.717 | 0.937 | 1.1 | 0.616 | 0.553 | 0.448 | 0.531 | 0.52 | 0.565 | 1.04 | 0.599 | 0.536 | 0.632 |
| 0.399 | 0.654 | 0.418 | PAKPRYRARQR [KCNJ11_Y26_E23K] | 0.642 | 0.955 | 1.08 | 0.767 | 1.06 | 0.819 | 0.763 | 0.774 | 0.671 | 0.877 | 0.935 | 0.818 | 0.813 |
| 0.493 | 0.728 | 0.533 | AKRKGYDMQVD [NEB_Y2770_R2773Q] | 0.315 | 0.377 | 0.473 | 0.328 | 0.366 | 0.363 | 0.404 | 0.257 | 0.311 | 0.395 | 0.301 | 0.372 | 0.327 |
| 0.47 | 0.589 | 0.425 | REQREYLDQLN [CCDC88B_Y1277] | 0.66 | 0.578 | 0.917 | 0.532 | 0.663 | 0.604 | 0.521 | 0.666 | 0.693 | 0.984 | 0.433 | 2.21 | 0.624 |
| 0.74 | 0.799 | 0.492 | SGLDSYVRSLP [TRAPPC1_Y133_R129G] | 0.48 | 0.443 | 0.618 | 0.445 | 0.581 | 0.438 | 0.359 | 0.379 | 0.453 | 0.651 | 0.402 | 0.426 | 0.424 |
| 1.16 | 0.863 | 1.1 | YETDYYQKGGK [INSR_Y1190_R1191Q] | 0.907 | 0.716 | 1.34 | 0.573 | 0.615 | 0.639 | 0.459 | 0.63 | 0.983 | 0.919 | 0.664 | 0.526 | 0.519 |
| 0.636 | 0.614 | 0.575 | GVVVPYEPPEV [TP53_Y220_S215G] | 0.581 | 1.25 | 0.892 | 0.563 | 0.559 | 0.41 | 0.352 | 0.493 | 0.39 | 0.905 | 0.387 | 0.695 | 0.366 |
| 1.21 | 0.883 | 0.489 | EFNLMYDGTKE [IRF6_Y97] | 0.603 | 1.03 | 0.993 | 0.479 | 0.462 | 0.595 | 0.597 | 0.447 | 0.498 | 1.14 | 0.446 | 0.705 | 0.536 |

From the supplement of paper PMC10065799, “High-throughput profiling of sequence recognition by tyrosine kinases and SH2 domains using bacterial peptide display” (eLife, 2023)
